Measured values reported in IntAct's records for PubMed 17581628.

B1: DCC-interacting protein 13-alpha (Homo sapiens), Q9UKG1 (parent)
chain: MPGIDKLPIEETLEDSPQTRSLLGVFEEDATAISNYMNQLYQAMHRIYDAQNELSAATHLTSKLLKEYEKQRFPLGGDDEVMSSTLQQFSKVIDELSSCHAVLSTQLADAMMFPITQFKERDLKEILTLKEVFQIASNDHDAAINRYSRLSKKRENDKVKYEVTEDVYTSRKKQHQTMMHYFCALNTLQYKKKIALLEPLLGYMQAQISFFKMGSENLNEQLEEFLANIGTSVQNVRREMDSDIETMQQTIEDLEVASDPLYVPDPDPTKFPVNRNLTRKAGYLNARNKTGLVSSTWDRQFYFTQGGNLMSQARGDVAGGLAMDIDNCSVMAVDCEDRRYCFQITSFDGKKSSILQAESKKDHEEWICTINNISKQIYLSENPEETAARVNQSALEAVTPSPSFQQRHESLRPAAGQSRPPTARTSSSGSLGSESTNLAALSLDSLVAPDTPIQFDIISPVCEDQPGQAKAFGQGGRRTNPFGESGGSTKSETEDSILHQLFIVRFLGSMEVKSDDHPDVVYETMRQILAARAIHNIFRMTESHLLVTCDCLKLIDPQTQVTRLTFPLPCVVLYATHQENKRLFGFVLRTSSGRSESNLSSVCYIFESNNEGEKICDSVGLAKQIALHAELDRRASEKQKEIERVKEKQQKELNKQKQIEKDLEEQSRLIAASSRPNQASSEGQFVVLSSSQSEESDLGEGGKKRESEA
B2: Ras-related protein Rab-5A (Homo sapiens), P20339 (parent)
chain: MASRGATRPNGPNTGNKICQFKLVLLGESAVGKSSLVLRFVKGQFHEFQESTIGAAFLTQTVCLDDTTVKFEIWDTAGQERYHSLAPMYYRGAQAAIVVYDITNEESFARAKNWVKELQRQASPNIVIALSGNKADLANKRAVDFQEAQSYADDNSLLFMETSAKTSMNVNEIFMAIAKKLPKNEPQNPGANSARGRGVDLTEPTQPTRNQCCSN
partner: B1 chain

Variants of: B1
Details: with rab5a_human RAB5A

| Variant | effect of a mutation on the interaction |
| --- | --- |
| V25D | decreasing interaction |

Variants of: B1
Details: with rab21_human RAB21, Q9UL25
rab21_human RAB21, Q9UL25, sequence (Q9UL25 whole entry): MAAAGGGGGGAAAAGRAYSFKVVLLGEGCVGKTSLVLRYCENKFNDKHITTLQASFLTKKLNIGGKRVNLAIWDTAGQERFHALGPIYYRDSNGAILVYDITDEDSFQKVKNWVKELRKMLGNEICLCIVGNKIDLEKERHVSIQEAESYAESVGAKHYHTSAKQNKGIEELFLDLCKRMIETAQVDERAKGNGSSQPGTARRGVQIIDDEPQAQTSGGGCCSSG

| Variant | effect of a mutation on the interaction |
| --- | --- |
| V25D | decreasing interaction |

Variants of: B1
Details: with rab5a_human RAB5A
Remark: another data set of the same source

| Variant | effect of a mutation on the interaction |
| --- | --- |
| N308D | disrupting interaction |

Variants of: B1
Details: with rab21_human RAB21, Q9UL25
Remark: another data set of the same source

| Variant | effect of a mutation on the interaction |
| --- | --- |
| N308D | disrupting interaction |

Variants of: B1
Details: with rab5a_human RAB5A
Remark: another data set of the same source

| Variant | effect of a mutation on the interaction |
| --- | --- |
| M310K | disrupting interaction |

Variants of: B1
Details: with rab21_human RAB21, Q9UL25
Remark: another data set of the same source

| Variant | effect of a mutation on the interaction |
| --- | --- |
| M310K | disrupting interaction |

Variants of: B1
Details: with rab21_human RAB21, Q9UL25
Remark: another data set of the same source

| Variant | effect of a mutation on the interaction |
| --- | --- |
| G319R | disrupting interaction |

Variants of: B1
Details: with rab5a_human RAB5A
Remark: another data set of the same source

| Variant | effect of a mutation on the interaction |
| --- | --- |
| G319R | disrupting interaction |

Variants of: B1
Details: with rab5a_human RAB5A
Remark: another data set of the same source

| Variant | effect of a mutation on the interaction |
| --- | --- |
| A318D | disrupting interaction |

Variants of: B1
Details: with rab21_human RAB21, Q9UL25
Remark: another data set of the same source

| Variant | effect of a mutation on the interaction |
| --- | --- |
| L321D | decreasing interaction |

Variants of: B1
Details: with rab5a_human RAB5A
Remark: another data set of the same source

| Variant | effect of a mutation on the interaction |
| --- | --- |
| L321D | disrupting interaction |

Variants of: B1
Details: with rab21_human RAB21, Q9UL25
Remark: another data set of the same source

| Variant | effect of a mutation on the interaction |
| --- | --- |
| D324A | disrupting interaction |

Variants of: B1
Details: with rab5a_human RAB5A
Remark: another data set of the same source

| Variant | effect of a mutation on the interaction |
| --- | --- |
| D324A | disrupting interaction |

Variants of: B1
Details: with rab21_human RAB21, Q9UL25
Remark: another data set of the same source

| Variant | effect of a mutation on the interaction |
| --- | --- |
| E28K | decreasing interaction |

Variants of: B1
Details: with rab21_human RAB21, Q9UL25
Remark: another data set of the same source

| Variant | effect of a mutation on the interaction |
| --- | --- |
| D316R | disrupting interaction |

Variants of: B1
Details: with rab21_human RAB21, Q9UL25
Remark: another data set of the same source

| Variant | effect of a mutation on the interaction |
| --- | --- |
| D348K | disrupting interaction |

Variants of: B2
Details: with dp13a_human APPL1, Q9UKG1

| Variant | effect of a mutation on the interaction |
| --- | --- |
| MASRGATRPNGPNTGNKICQFKLVLLGESAVGKSSLVLRFVEGQFHEFQESTIGAAFLTQTVCLDDTTVKFEIWDTAGQERYHSLAPMYYRGAQAAIVVYDITNEESFARAKNWVKELQRQASPNIVIALSGNKADLANKRAVDFQEAQSYADDNSLLFMETSAKTSMNVNEIFMAIAKKLPKNEPQNPGANSARGRGVDLTEPTQPTRNQCCSN [K42E] | decreasing interaction |

Variants of: B2
Details: with dp13a_human APPL1, Q9UKG1
Remark: another data set of the same source

| Variant | effect of a mutation on the interaction |
| --- | --- |
| MASRGATRPNGPNTGNKICQFKLVLLGESAVGKSSLVLRFVKGQFHENQESTIGAAFLTQTVCLDDTTVKFEIWDTAGQERYHSLAPMYYRGAQAAIVVYDITNEESFARAKNWVKELQRQASPNIVIALSGNKADLANKRAVDFQEAQSYADDNSLLFMETSAKTSMNVNEIFMAIAKKLPKNEPQNPGANSARGRGVDLTEPTQPTRNQCCSN [F48N] | decreasing interaction |

Variants of: B2
Details: with dp13a_human APPL1, Q9UKG1
Remark: another data set of the same source

| Variant | effect of a mutation on the interaction |
| --- | --- |
| MASRGATRPNGPNTGNKICQFKLVLLGESAVGKSSLVLRFVKGQFHEFQESTIGAAFLTQTVCLDDTTVKFEIWDTAGQERYHSLAPSYYRGAQAAIVVYDITNEESFARAKNWVKELQRQASPNIVIALSGNKADLANKRAVDFQEAQSYADDNSLLFMETSAKTSMNVNEIFMAIAKKLPKNEPQNPGANSARGRGVDLTEPTQPTRNQCCSN [M88S] | decreasing interaction |

Variants of: B2
Details: with dp13a_human APPL1, Q9UKG1
Remark: another data set of the same source

| Variant | effect of a mutation on the interaction |
| --- | --- |
| MASRGATRPNGPNTGNKICQFKLVLLGESAVGKSSLVLRFVKGQFHEFQESTIGAAFLTQTVCLDDTTVKFEIWDTAGQERYHSLAPMRYRGAQAAIVVYDITNEESFARAKNWVKELQRQASPNIVIALSGNKADLANKRAVDFQEAQSYADDNSLLFMETSAKTSMNVNEIFMAIAKKLPKNEPQNPGANSARGRGVDLTEPTQPTRNQCCSN [Y89R] | decreasing interaction |

Variants of: B2
Details: with dp13a_human APPL1, Q9UKG1
Remark: another data set of the same source

| Variant | effect of a mutation on the interaction |
| --- | --- |
| MASRGATRPNGPNTGNKICQFKLVLLGESAVGKSSLVLRFVKGQFDEFQESTIGAAFLTQTVCLDDTTVKFEIWDTAGQERYHSLAPMYYRGAQAAIVVYDITNEESFARAKNWVKELQRQASPNIVIALSGNKADLANKRAVDFQEAQSYADDNSLLFMETSAKTSMNVNEIFMAIAKKLPKNEPQNPGANSARGRGVDLTEPTQPTRNQCCSN [H46D] | disrupting interaction |

Variants of: B2
Details: with dp13a_human APPL1, Q9UKG1
Remark: another data set of the same source

| Variant | effect of a mutation on the interaction |
| --- | --- |
| MASRGATRPNGPNTGNKICQFKLVLLGESAVGKSSLVLRFVKGQFHEFQESTIGAAFLTQTVCLDDTTVKFEIRDTAGQERYHSLAPMYYRGAQAAIVVYDITNEESFARAKNWVKELQRQASPNIVIALSGNKADLANKRAVDFQEAQSYADDNSLLFMETSAKTSMNVNEIFMAIAKKLPKNEPQNPGANSARGRGVDLTEPTQPTRNQCCSN [W74R] | disrupting interaction |

Variants of: B2
Details: with dp13a_human APPL1, Q9UKG1
Remark: another data set of the same source

| Variant | effect of a mutation on the interaction |
| --- | --- |
| MASRGATRPNGPNTGNKICQFKLVLLGESAVGKSSLVLRFVKGQFHEFQESTIGAAFLTQTVCLDDTTVKFEIWDTAGQERYHSRAPMYYRGAQAAIVVYDITNEESFARAKNWVKELQRQASPNIVIALSGNKADLANKRAVDFQEAQSYADDNSLLFMETSAKTSMNVNEIFMAIAKKLPKNEPQNPGANSARGRGVDLTEPTQPTRNQCCSN [L85R] | disrupting interaction |
